Data on 21 molecules can be found in patent US20240199761A1 (AstraZeneca / MedImmune, published 2024).

Assay [1] concerns the target T1, recombinant mouse PAD4 (mouse, UniProt Q9Z183 1-666).
T1 construct: Recombinant
As to the kind of experiment: SPR; biotinylated antibody captured on C1-streptavidin, PAD4 flowed over.

Assay [2] concerns the target recombinant human PAD2 (human, UniProt Q9Y2J8 1-665, enzymatically biotinylated on an Avi-tag (when captured on the SPR chip)). Nature of the assay: cell-based or functional assay.
In assay [3] the target is T2, huFcRn (human, UniProt P55899 24-297; P61769 21-119, limits assumed).
T2 construct: also called human neonatal Fc receptor
As to the kind of experiment: huFcRn affinity chromatography, pH gradient elution.

Assay [4] addresses T3, recombinant mouse PAD2 (mouse, UniProt Q08642 1-673, enzymatically biotinylated on an Avi-tag).
T3 construct: Recombinant, biotinylated on an Avi-tag
As to the kind of experiment: SPR (Biacore 8K), biotinylated PAD2 on streptavidin chip, Fab flowed over.

Assay [5] concerns the target T4, recombinant human PAD2 (human, UniProt Q9Y2J8 1-665, enzymatically biotinylated on an Avi-tag).
T4 construct: Recombinant, biotinylated on an Avi-tag and captured on streptavidin; also called peptidyl arginine deiminase 2
The description is as above.

For assay [6], the target named is T5, human PAD2, recombinant, tags at the N-terminus (human, UniProt Q9Y2J8 1-665, enzymatically biotinylated on an Avi-tag where captured on streptavidin).
T5 construct: not shown: N-terminal tags incl; Avi-tag
As to the kind of experiment: SPR; antibody on C1-Protein G', PAD2 flowed over.

Assay [7] addresses T6, mouse PAD2, recombinant, tags at the N-terminus (mouse, UniProt Q08642 1-673, enzymatically biotinylated on an Avi-tag where captured on streptavidin).
T6 construct: not shown: N-terminal tags incl; Avi-tag
As to the kind of experiment: SPR; antibody on C1-Protein G', PAD2 flowed over.

Assay [8] addresses T7, cynomolgus PAD2, recombinant, tags at the N-terminus (cynomolgus, UniProt G7NUR0 1-665, enzymatically biotinylated on an Avi-tag where captured on streptavidin).
T7 construct: also called Cyno PAD2; not shown: N-terminal tags incl; Avi-tag
As to the kind of experiment: SPR; antibody on C1-Protein G', PAD2 flowed over.

The target in assay [9] is T5, human PAD2, recombinant, tags at the …. Nature of the assay: SPR; antibody on C1-Protein G', PAD2 flowed over. The source holds these as a separate data set.
Assay [10] concerns the target T6, mouse PAD2, recombinant, tags at the …. Nature of the assay: SPR; antibody on C1-Protein G', PAD2 flowed over. The source holds these as a separate data set.
The target of assay [11] is T7, cynomolgus PAD2, recombinant, tags at …. As to the kind of experiment: SPR; antibody on C1-Protein G', PAD2 flowed over. This is another data set of the same source.
Assay [12] deals with T8, recombinant human PAD2 (biotinylated) (human, UniProt Q9Y2J8 1-665, enzymatically biotinylated on an Avi-tag).
T8 construct: not shown: Avi-tag (and any other tags); said to be at the C-terminus in this earlier assay
As to the kind of experiment: SPR (Biacore), biotinylated PAD2 on CM5/C1-streptavidin, Fab flowed over; average.

Assay [13] deals with T9, recombinant mouse PAD2 (biotinylated) (mouse, UniProt Q08642 1-673, enzymatically biotinylated on an Avi-tag).
T9 construct: not shown: Avi-tag (and any other tags); said to be at the C-terminus in this earlier assay
The description is as above.

Positions count from the first letter of the chain named. Where two headings read alike, the source gives them in different places. Where only a bound is given, the exact number is not on record here.

B1: AB1630204 (mouse anti-PAD4) (antibody, V domains shown)
VH: QVQLQQPGAELVKPGASVKLSCKASGYTFTSYWMHWVKQRPGRGPEWIGRIDPNSGGTKYNEKFKSKAILTVDKPSSTAYMQLSSLTSEDSAVYYCAREGGDYWYFDVWGAGTTVTVSS
VL: QIVLTQSPALMSASPGEKVTMTCSANSGLRYMYWYQQKPRSSPKPWIYLTSNLASGVPARFSGSGSGTSYSLTISSMEAEDAATYYCQQWSSIPPTFGAGTKLELK
notes: Biotinylated antibody captured on the chip
With B1, in assay [1], the Kd is 1.31 nM, the koff is 0.000314 s⁻¹ and the kon is 239000 M⁻¹ s⁻¹.

B2: Clone 08 (Bis3, TM; PAD2 Fab, PAD4 scFv) (bispecific antibody, human IgG1, lambda)
heavy: not shown
light: SYVLTQPPSVSVSPGQTASITCSGDKVGDKYVSWYQQKPGQSPVLVIYQDSQRPSGIPERFSGSNSGNTATLTISGTQAMDEADYYCQTWAPDVLLFGSGTKVTVLGQPKAAPSVTLFPPSSEELQANKATLVCLISDFYPGAVTVAWKADSSPVKAGVETTTPSKQSNNKYAASSYLSLTPEQWKSHRSYSCQVTHEGSTVEKTVAPTECS
As to B2, the “potency (IC50), Histone-H3 citrullination ELISA, recombinant PAD2” value (from here on “potency (IC50)”) in assay [2] was < 1 nM.

B3: Clone 10 (Bis3, TM-YTE; Fab anti-PAD2, scFv anti-PAD4) (bispecific antibody, human IgG1, lambda)
heavy: not shown
light: B2 light
notes: Bivalent bispecific IgG-HC-scFv; also called PAD240010
For B3, in assay [3], the “HPLC retention” value was 22.8 min and the Relative retention came to 0.753.

B4: AB1630205 (mouse anti-PAD4) (antibody, V domains shown)
VH: EVQLVESGGGLVKPGGSRKLSCAASGFTFSDYGMHWVRQAPEKGLEWVAYISSGSSTIYYADTVKGRFTISRDNAKNTLFLQMTSLRSEDTAMYYCTRTYYDDAMDYWGQGTSVTVSS
VL: SIVMTQTPKFLLVSAGDRVTITCKASQSVSNDVVWYQQKPGQSPKLLISYASNRYTGVPDRFTGSGYGTDFTFTISSVQAEDLAVYFCQQDYSSPWTFGGGTKLEIK
notes: as for B1
With B4, in assay [1], the equilibrium dissociation constant (Kd) stood at 0.094 nM, the koff is 0.000106 s⁻¹ and the kon turned out to be 1.14e+06 M⁻¹ s⁻¹.

B5: PAD40175 hIgG1 ngl-2 (anti-PAD2) Fab (Fab, V domains shown)
VH: not shown
VL: QAVLTQPSSVSVAPGKTATITCGGDNIGSKSVHWYQQKPGQAPLLVIFYDTDRPSGVPERFSGSNSGNTATLTISRVEAGDEADYYCQVWDSNGDHYVFGTGTKLTVL
notes: Tested as Fab
As to B5, the Kd turned out to be 2.35 nM in assay [4] and 6.73 nM in assay [5].

B6: Clone 07 (Bis3, TM; PAD4 Fab, PAD2 scFv) (bispecific antibody, human IgG1, lambda)
heavy: not shown
light: QSALTQPRSVSGSPGQSVTISCTGTSGDVGRYSHVSWYQQHPGKAPKLIIYNVYERPSGVPDRFSGSKSGNTASLTISGLQAEDEADYYCSSHSRSSTPVLFGGGTKLTVLGQPKAAPSVTLFPPSSEELQANKATLVCLISDFYPGAVTVAWKADSSPVKAGVETTTPSKQSNNKYAASSYLSLTPEQWKSHRSYSCQVTHEGSTVEKTVAPTECS
For B6, in [2], the “potency (IC50)” value is < 1 nM.

B7: Clone 07, Bis3 anti-PAD4 Fab / anti-PAD2 scFv, Fc TM (bispecific antibody, human IgG1, lambda)
heavy: not shown
light: B6 light
notes: Bivalent for PAD2 and for PAD4; also called Clone 7*; PAD240007
Take B7: the Kd in [6] was 0.0161 nM; in assay [7], 0.0162 nM; in assay [8], 0.0219 nM; in [9] it was 0.0161 nM; in assay [10], 0.0162 nM; in [11], 0.0219 nM. For the same molecule, the koff in assay [9] came to 3.21e-05 s⁻¹; in [10], 4.45e-05 s⁻¹; in assay [11], 5.46e-05 s⁻¹. Further, the kon amounted to 2e+06 M⁻¹ s⁻¹ in assay [9], 2.76e+06 M⁻¹ s⁻¹ in assay [10] and 2.61e+06 M⁻¹ s⁻¹ in assay [11].

B8: Clone 09 (Bis3, TM-YTE; Fab anti-PAD4, scFv anti-PAD2) (bispecific antibody, human IgG1, lambda)
heavy: not shown
light: B6 light
notes: Bivalent bispecific IgG-HC-scFv; also called PAD240009
In the case of B8, in assay [3], the “HPLC retention” value was determined as 23.3 min and the Relative retention was determined as 0.828.

B9: PAD40141 hIgG1 ngl-2 (anti-PAD2, parent) Fab (Fab, V domains shown)
VH: not shown
VL: SYVLTQPPSVSVSPGQTASITCSGDKVGDKYVSWYQQKPGQAPVLVMYQDSQRPSGIPERISGSNSGNTATLTISGTQAVDEAEYYCQTWDSNEYVFGSGTKVTVL
notes: Tested as Fab
For B9, the Kd in assay [5] stood at 261 nM.

B10: 141LO0002 hIgG1 pgl-4 (anti-PAD2) Fab (Fab, V domains shown)
VH: not shown
VL: SYVLTQPPSVSVSPGQTASITCSGDKVGDKYVSWYQQKPGQSPVLVIYQDSQRPSGIPERFSGSNSGNTATLTISGTQAMDEADYYCEVGVDYEYVFGSGTKVTVL
On to B10, for which the Kd in assay [4] is 38.5 nM; in assay [5], 2.78 nM.

B11: 141LO0039 hIgG1 ngl-2 (anti-PAD2) Fab (Fab, V domains shown)
VH: not shown
VL: B9 VL with Q88H, W90Y, D91A, S92E, N93D
notes: Tested as Fab
B11: in assay [5], the Kd was 1.87 nM.

B12: 141LO0030 hIgG1 ngl-2 (anti-PAD2) Fab (Fab, V domains shown)
VH: not shown
VL: B9 VL with D91Y, S92D, N93D, E94A, Y95L, V96T
notes: Tested as Fab
Consider B12, for which the Kd in [5] stood at 0.949 nM.

B13: 141LO0055 hIgG1 ngl-2 (anti-PAD2) Fab (Fab, V domains shown)
VH: not shown
VL: B9 VL with T89S, W90E, D91N, S92A, N93V
notes: Tested as Fab
For the molecule B13, in assay [5], the Kd was found to be 0.364 nM.

B14: 141LO0002 hIgG1 ngl-2 (anti-PAD2) Fab (Fab, V domains shown)
VH: not shown
VL: B10 VL with S42A, I47M, F61I, M80V, D84E
Regarding B14, the Kd in assay [5] amounted to 3.78 nM.

B15: 141LO0002 hIgG1 pgl-3 (anti-PAD2) Fab (Fab, V domains shown)
VH: not shown
VL: B10 VL
notes: Tested as Fab
In the case of B15, the Kd in [4] amounted to 33.8 nM; in assay [5], 3.31 nM.

B16: Clone 22 (141LO0035 hIgG1 pgl-4), anti-PAD2, as IgG (antibody, V domains shown)
VH: not shown
VL: B10 VL with E88Q, V89T, G90W, V91A, D92P, Y93D, E94V, Y95L, V96L
As to B16, in assay [2], the “potency (IC50)” value was < 1 nM.

B17: 141LO0035 hIgG1 pgl-4 (Clone 22, anti-PAD2) Fab (Fab, V domains shown)
VH: not shown
VL: B10 VL with E88Q, V89T, G90W, V91A, D92P, Y93D, E94V, Y95L, V96L
notes: Tested as Fab
Turning to B17, the values for the Kd in assay [4] and in [5] were 0.794 nM and 0.218 nM, respectively.

B18: 141LO0035 hIgG1 ngl-2 (anti-PAD2) Fab (Fab, V domains shown)
VH: not shown
VL: B9 VL with D91A, S92P, N93D, E94V, Y95L, V96L
notes: Tested as Fab
As to B18, the Kd worked out at 0.571 nM in assay [4] and 0.185 nM in assay [5].

B19: 141LO0039 hIgG1 pgl-4 (Germlined) (Fab, V domains shown)
VH: not shown
VL: B10 VL with E88H, V89T, G90Y, V91A, D92E, Y93D
notes: Anti-PAD2; tested as Fab
As for B19, in [12], the Kd came out at 3.9 nM, the koff turned out to be 0.00245 s⁻¹ and the kon came out at 629000 M⁻¹ s⁻¹. Further, in assay [13], the Kd worked out at 17.8 nM, the koff is 0.0125 s⁻¹ and the kon was determined as 722000 M⁻¹ s⁻¹.

B20: 141LO0030 hIgG1 pgl-4 (anti-PAD2) Fab (Fab, V domains shown)
VH: not shown
VL: B10 VL with E88Q, V89T, G90W, V91Y, Y93D, E94A, Y95L, V96T
notes: Tested as Fab
On to B20, for which the Kd amounted to 13.2 nM in assay [4] and 2.14 nM in assay [5].

B21: 141LO0039 hIgG1 pgl-4 (anti-PAD2) Fab (Fab, V domains shown)
VH: not shown
VL: B10 VL with E88H, V89T, G90Y, V91A, D92E, Y93D
notes: Tested as Fab
For the molecule B21, the Kd is 17.8 nM in [4] and 3.9 nM in assay [5].
